Data reported in IntAct's records for PubMed 23918937.

B1: Protein maternal effect lethal 26 (Caenorhabditis elegans), Q94420 (parent)
chain: MEPRIDGGVFIGGIGNSGNEMCSNGVPALGVSSQTEIKVEKVQHTWTVKNFSHCYQEYLENFVYLQRGDEQLTWSIKIYPKGNGENNKDFVFLCLNRVINNNVKAGKIGFKSQFKLRTAENKDIEMRIHPNPSHSDYVSYIKRDVLFPQIMPRDMIIVNVEIDVAVETITTTNEPIQFEPTNSEQQLIEDYQRLFSQELLCDFAINVNGKIIRAHKAVLAARSPVFNAMLTHQDTDEAKSSMMYINDMDYDVIYEMVYYIYCGRCNKDITDMATALLIAADKYRLEELKSHCEKYLVENINIENACSLLIIGDLYSAPKLRKRAVTYILARPKNVTGTPGWEDILKGHPNLITDIFSQIDRQSSTGATSSVSNLPGVPMDIPGITGNIVPPPSGL
B2: Meiotic spindle formation protein mei-1 (Caenorhabditis elegans), P34808 (parent)
chain: MNGDVQSVIRGYLERAQVAKTMSDAGRWNEAGDLLRQLMTDVKSCKISASNRDEHDARNTFLRALEANLKLVQQNVRDEDDLHEAMTRQSGSPEPPADPDVWSKPSPPLPSSSKFGATKKGVGAAGPRPREISKSTSSMSTNPADVKPANPTQGILPQNSAGDSFDASAYDAYIVQAVRGTMATNTENTMSLDDIIGMHDVKQVLHEAVTLPLLVPEFFQGLRSPWKAMVLAGPPGTGKTLIARAIASESSSTFFTVSSTDLSSKWRGDSEKIVRLLFELARFYAPSIIFIDEIDTLGGQRGNSGEHEASRRVKSEFLVQMDGSQNKFDSRRVFVLAATNIPWELDEALRRRFEKRIFIPLPDIDARKKLIEKSMEGTPKSDEINYDDLAARTEGFSGADVVSLCRTAAINVLRRYDTKSLRGGELTAAMESLKAELVRNIDFEAALQAVSPSAGPDTMLKCKEWCDSFGAM
partner: B1 chain
B3: Protein maternal effect lethal 26 (Caenorhabditis elegans), Q94420 (parent)
chain: B1 chain
partner: B2 chain

Variants of: B1
Conditions: with pp4r1_caeel ppfr-1, G5ECH5
Chain of pp4r1_caeel ppfr-1, G5ECH5 (G5ECH5 whole entry): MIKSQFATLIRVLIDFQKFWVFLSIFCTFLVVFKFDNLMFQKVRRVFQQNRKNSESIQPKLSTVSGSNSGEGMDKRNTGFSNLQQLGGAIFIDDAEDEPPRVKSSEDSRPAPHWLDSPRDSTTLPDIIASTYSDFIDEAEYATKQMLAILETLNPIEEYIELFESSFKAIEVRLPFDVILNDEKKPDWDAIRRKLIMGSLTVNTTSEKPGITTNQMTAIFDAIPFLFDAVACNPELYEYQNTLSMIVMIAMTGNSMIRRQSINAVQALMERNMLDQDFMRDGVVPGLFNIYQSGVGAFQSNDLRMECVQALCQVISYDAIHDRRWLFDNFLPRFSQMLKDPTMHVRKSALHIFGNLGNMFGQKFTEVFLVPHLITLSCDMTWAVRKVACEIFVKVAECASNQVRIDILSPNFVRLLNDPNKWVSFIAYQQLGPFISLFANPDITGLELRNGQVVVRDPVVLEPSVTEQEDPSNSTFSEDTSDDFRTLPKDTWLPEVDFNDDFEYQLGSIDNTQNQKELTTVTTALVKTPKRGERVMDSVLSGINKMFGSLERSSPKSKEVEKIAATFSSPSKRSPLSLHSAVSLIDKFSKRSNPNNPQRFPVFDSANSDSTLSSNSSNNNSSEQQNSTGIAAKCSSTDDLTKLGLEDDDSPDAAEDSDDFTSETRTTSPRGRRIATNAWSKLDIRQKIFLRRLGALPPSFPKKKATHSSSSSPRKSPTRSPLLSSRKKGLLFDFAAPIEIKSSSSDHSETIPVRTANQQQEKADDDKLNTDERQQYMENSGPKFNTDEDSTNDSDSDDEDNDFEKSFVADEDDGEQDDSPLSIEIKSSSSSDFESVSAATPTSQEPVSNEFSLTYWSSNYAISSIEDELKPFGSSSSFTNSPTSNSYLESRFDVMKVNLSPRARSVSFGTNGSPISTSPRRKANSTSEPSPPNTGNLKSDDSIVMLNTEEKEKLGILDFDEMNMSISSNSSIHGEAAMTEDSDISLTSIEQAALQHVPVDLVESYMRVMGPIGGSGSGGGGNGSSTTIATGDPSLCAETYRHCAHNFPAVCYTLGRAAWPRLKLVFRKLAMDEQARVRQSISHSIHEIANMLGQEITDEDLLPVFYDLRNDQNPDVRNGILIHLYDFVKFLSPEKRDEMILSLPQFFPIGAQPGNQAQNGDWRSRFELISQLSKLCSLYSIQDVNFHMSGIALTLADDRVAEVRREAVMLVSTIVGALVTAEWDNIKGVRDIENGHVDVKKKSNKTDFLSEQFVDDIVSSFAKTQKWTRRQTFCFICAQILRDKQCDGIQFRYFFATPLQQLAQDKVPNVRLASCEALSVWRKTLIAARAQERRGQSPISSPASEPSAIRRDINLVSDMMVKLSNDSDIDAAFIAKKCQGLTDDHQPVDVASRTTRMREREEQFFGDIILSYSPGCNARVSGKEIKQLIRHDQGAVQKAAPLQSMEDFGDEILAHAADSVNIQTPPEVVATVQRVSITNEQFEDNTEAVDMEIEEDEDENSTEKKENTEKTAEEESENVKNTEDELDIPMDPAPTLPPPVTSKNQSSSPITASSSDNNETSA

**Q.** With C94Y as the variant, how does the “effect of a mutation on the interaction” value read?
**A.** The value was “disrupting interaction strength”.

Variants of: B2
Conditions: with mel26_caeel mel-26, Q94420

**Q.** For S92A, which “effect of a mutation on the interaction” value is on record?
**A.** Its value is “disrupting interaction strength”.

Variants of: B3
Conditions: with ktna1_caeel mei-1, P34808

**Q.** With C94Y as the variant, how does the “effect of a mutation on the interaction” value read?
**A.** Its value is “disrupting interaction strength”.
